Article PMC4115806 (2014)

Target: T1, Activated protein C (Homo sapiens, UniProt P04070)
T1 chain 1: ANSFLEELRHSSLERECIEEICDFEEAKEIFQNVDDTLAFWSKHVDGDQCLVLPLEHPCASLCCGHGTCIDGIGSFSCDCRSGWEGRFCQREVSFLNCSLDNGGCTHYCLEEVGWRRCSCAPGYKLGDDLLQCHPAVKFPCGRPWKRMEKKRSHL
T1 chain 2: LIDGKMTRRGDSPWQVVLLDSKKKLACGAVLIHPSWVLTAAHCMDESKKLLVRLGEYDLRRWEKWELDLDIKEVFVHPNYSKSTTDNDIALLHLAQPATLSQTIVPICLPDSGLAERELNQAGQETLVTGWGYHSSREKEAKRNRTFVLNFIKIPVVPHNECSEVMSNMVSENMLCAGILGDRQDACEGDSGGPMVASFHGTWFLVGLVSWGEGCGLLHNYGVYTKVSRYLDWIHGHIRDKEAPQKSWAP
Assay: flow cytometry

Kd: 77 nM
B1: Endothelial protein C receptor (protein)
chain: SQDASDGLQRLHMLQISYFRDPYHVWYQGNASLGGHLTHVLEGPDTNTTIIQLQPLQEPESWARTQSGLQSYLLQFHGLVRLVHQERTLAFPLTIRCFLGCELPPEGSRAHVFFEVAVNGSSFVSFRPERALWQADTQVTSGVVTFTLQQLNAYNRTRYELREFLEDTCVQYVQKHISAENTKGSQTSRSYTS
modifications: fluorescently labelled APC
